Data taken from patent US20250312499A1, “KISSPEPTIN RECEPTOR (KISS1R) TARGETED THERAPEUTICS AND USES THEREOF” (priority 2024, published 2025).
Numbered stars: 1 amine (or outer) side, 2 acyl side, 3 side chain; on linkers, the order of the positions; unused ones are H or OH. Square brackets hold non-standard residues; d marks the D form. Ends that are not written are not given here. * marks the point of attachment. X2 = 4‑amino‑1‑((3-fluoro-4-methylbenzyl)glycyl)piperidine‑4‑carboxylic acid, Cc1ccc(CN(CC(=O)N2CCC(N[*:1])(C(=O)[*:2])CC2)[*:3])cc1F; X7 = 4‑amino‑1‑(N-methylcarbamimidoyl)piperidine‑4‑carboxylic acid, CNC(=N)N1CCC(N[*:1])(C(=O)[*:2])CC1; X6 = 3‑(2-(2-(3-(p-tolyl)propanamido)ethoxy)ethoxy)propanoyl, Cc1ccc(CCC(=O)NCCOCCOCCC(=O)*)cc1; DOTA = O=C(O)CN1CCN(CC(=O)O)CCN(CC(=O)*)CCN(CC(=O)O)CC1; Phe(4-CN) = N#Cc1ccc(C[C@H](N)C(=O)O)cc1; Phe(3-F) = N[C@@H](Cc1cccc(F)c1)C(=O)O; 2Nal = N[C@@H](Cc1ccc2ccccc2c1)C(=O)O; d4Pal = N[C@H](Cc1ccncc1)C(=O)O; Cha = N[C@@H](CC1CCCCC1)C(=O)O; NH‑glycol = not defined here; ABA = not defined here; APM = not defined here; Ahx = NCCCCCC(=O)O; azaGly = NNC(=O)O

B1: Compound 64 (peptide)
peptide: {HO‑PEG3‑C(:O)}-[dY]K(DOTA)NT[Phe(3-F)][azaGly]L[X2]W-NH2
B2: Compound 387 (peptide)
peptide: X6-[dY]K(DOTA)NT[Cha][azaGly]L[4‑amino‑1‑carbamimidoylpiperidine‑4‑carboxylic acid(Sarcosine)]W-NH2
B3: Compound 37 (peptide)
peptide: {DOTA}-KF[azaGly]L[X2]W-NH2
B4: Compound 32 (peptide)
peptide: {DOTA-Ahx}-[dY][dH][dW]NTF[azaGly]L[X2]W-NH2
SMILES: Cc1ccc(CNCC(=O)N2CCC(NC(=O)[C@H](CC(C)C)NC(=O)NNC(=O)[C@H](Cc3ccccc3)NC(=O)[C@@H](NC(=O)[C@H](CC(N)=O)NC(=O)[C@@H](Cc3c[nH]c4ccccc34)NC(=O)[C@@H](Cc3c[nH]cn3)NC(=O)[C@@H](Cc3ccc(O)cc3)NC(=O)CCCCCNC(=O)CN3CCN(CC(=O)O)CCN(CC(=O)O)CCN(CC(=O)O)CC3)[C@@H](C)O)(C(=O)N[C@@H](Cc3c[nH]c4ccccc34)C(N)=O)CC2)cc1F
B5: Compound 28 (peptide)
peptide: {DOTA-APM}-F[azaGly]L[X2]W-NH2
modifications: reading uncertain
B6: Compound 388 (peptide)
peptide: X6-[dY][dK](DOTA)NT[Cha][azaGly]L[4‑amino‑1‑carbamimidoylpiperidine‑4‑carboxylic acid(Sarcosine)]W-NH2
B7: Compound 20 (peptide)
peptide: {DOTA-Ahx}-[dY]PNTF[azaGly]L[X2]W-NH2
SMILES: Cc1ccc(CNCC(=O)N2CCC(NC(=O)[C@H](CC(C)C)NC(=O)NNC(=O)[C@H](Cc3ccccc3)NC(=O)[C@@H](NC(=O)[C@H](CC(N)=O)NC(=O)[C@@H]3CCCN3C(=O)[C@@H](Cc3ccc(O)cc3)NC(=O)CCCCCNC(=O)CN3CCN(CC(=O)O)CCN(CC(=O)O)CCN(CC(=O)O)CC3)[C@@H](C)O)(C(=O)N[C@@H](Cc3c[nH]c4ccccc34)C(N)=O)CC2)cc1F
B8: Compound 30 (peptide)
peptide: {DOTA-Ahx}-[dW]NTF[azaGly]L[X2]W-NH2
SMILES: Cc1ccc(CNCC(=O)N2CCC(NC(=O)[C@H](CC(C)C)NC(=O)NNC(=O)[C@H](Cc3ccccc3)NC(=O)[C@@H](NC(=O)[C@H](CC(N)=O)NC(=O)[C@@H](Cc3c[nH]c4ccccc34)NC(=O)CCCCCNC(=O)CN3CCN(CC(=O)O)CCN(CC(=O)O)CCN(CC(=O)O)CC3)[C@@H](C)O)(C(=O)N[C@@H](Cc3c[nH]c4ccccc34)C(N)=O)CC2)cc1F
B9: Compound 36 (peptide)
peptide: {DOTA-Ahx}-[dY]ENT[Phe(3-F)][azaGly]L[X2]W-NH2
SMILES: Cc1ccc(CNCC(=O)N2CCC(NC(=O)[C@H](CC(C)C)NC(=O)NNC(=O)[C@H](Cc3cccc(F)c3)NC(=O)[C@@H](NC(=O)[C@H](CC(N)=O)NC(=O)[C@H](CCC(=O)O)NC(=O)[C@@H](Cc3ccc(O)cc3)NC(=O)CCCCCNC(=O)CN3CCN(CC(=O)O)CCN(CC(=O)O)CCN(CC(=O)O)CC3)[C@@H](C)O)(C(=O)N[C@@H](Cc3c[nH]c4ccccc34)C(N)=O)CC2)cc1F
B10: Compound 23 (peptide)
peptide: {DOTA}-[dY][d4Pal]NTF[azaGly]L[X2]W-NH2
SMILES: Cc1ccc(CNCC(=O)N2CCC(NC(=O)[C@H](CC(C)C)NC(=O)NNC(=O)[C@H](Cc3ccccc3)NC(=O)[C@@H](NC(=O)[C@H](CC(N)=O)NC(=O)[C@@H](Cc3ccncc3)NC(=O)[C@@H](Cc3ccc(O)cc3)NC(=O)CN3CCN(CC(=O)O)CCN(CC(=O)O)CCN(CC(=O)O)CC3)[C@@H](C)O)(C(=O)N[C@@H](Cc3c[nH]c4ccccc34)C(N)=O)CC2)cc1F
B11: Compound 26 (peptide)
peptide: {DOTA-Ahx}-NTF[azaGly]L[X2]W-NH2
SMILES: Cc1ccc(CNCC(=O)N2CCC(NC(=O)[C@H](CC(C)C)NC(=O)NNC(=O)[C@H](Cc3ccccc3)NC(=O)[C@@H](NC(=O)[C@H](CC(N)=O)NC(=O)CCCCCNC(=O)CN3CCN(CC(=O)O)CCN(CC(=O)O)CCN(CC(=O)O)CC3)[C@@H](C)O)(C(=O)N[C@@H](Cc3c[nH]c4ccccc34)C(N)=O)CC2)cc1F
B12: Compound 25 (peptide)
peptide: {DOTA-4‑(aminomethyl)cyclohexanecarboxylic acid}-F[azaGly]L[X2]W-NH2
B13: Compound 35 (peptide)
peptide: {DOTA-Ahx}-[dY]WNT[Phe(3-F)][azaGly]L[X2]W-NH2
SMILES: Cc1ccc(CNCC(=O)N2CCC(NC(=O)[C@H](CC(C)C)NC(=O)NNC(=O)[C@H](Cc3cccc(F)c3)NC(=O)[C@@H](NC(=O)[C@H](CC(N)=O)NC(=O)[C@H](Cc3c[nH]c4ccccc34)NC(=O)[C@@H](Cc3ccc(O)cc3)NC(=O)CCCCCNC(=O)CN3CCN(CC(=O)O)CCN(CC(=O)O)CCN(CC(=O)O)CC3)[C@@H](C)O)(C(=O)N[C@@H](Cc3c[nH]c4ccccc34)C(N)=O)CC2)cc1F
B14: Compound 33 (peptide)
peptide: {DOTA-APM}-[dY][dH][dW]NTF[azaGly]L[X2]W-NH2
modifications: reading uncertain
B15: Compound 384 (peptide)
peptide: [dY]K(DOTA)NTF[azaGly]L[4‑amino‑1‑carbamimidoylpiperidine‑4‑carboxylic acid(Sarcosine)]W-NH2
modifications: not fully specified (N-terminus)
B16: Compound 91 (peptide)
peptide: {DOTA-Ahx}-[dY][dW]NTF[azaGly]L[X7]W-NH2
SMILES: CNC(=N)N1CCC(NC(=O)[C@H](CC(C)C)NC(=O)NNC(=O)[C@H](Cc2ccccc2)NC(=O)[C@@H](NC(=O)[C@H](CC(N)=O)NC(=O)[C@@H](Cc2c[nH]c3ccccc23)NC(=O)[C@@H](Cc2ccc(O)cc2)NC(=O)CCCCCNC(=O)CN2CCN(CC(=O)O)CCN(CC(=O)O)CCN(CC(=O)O)CC2)[C@@H](C)O)(C(=O)N[C@@H](Cc2c[nH]c3ccccc23)C(N)=O)CC1
B17: Compound 50 (peptide)
peptide: {DOTA-ABA}-F[azaGly]L[X2]W-NH2
modifications: reading uncertain
B18: Compound 104 (peptide)
peptide: {DOTA-Ahx}-[dY][dW]NTF[azaGly]L[X2][Phe(4-CN)]-NH2
SMILES: Cc1ccc(CNCC(=O)N2CCC(NC(=O)[C@H](CC(C)C)NC(=O)NNC(=O)[C@H](Cc3ccccc3)NC(=O)[C@@H](NC(=O)[C@H](CC(N)=O)NC(=O)[C@@H](Cc3c[nH]c4ccccc34)NC(=O)[C@@H](Cc3ccc(O)cc3)NC(=O)CCCCCNC(=O)CN3CCN(CC(=O)O)CCN(CC(=O)O)CCN(CC(=O)O)CC3)[C@@H](C)O)(C(=O)N[C@@H](Cc3ccc(C#N)cc3)C(N)=O)CC2)cc1F
B19: Compound 57 (peptide)
peptide: {DOTA-NH‑glycol}-[dY][dW]NTF[azaGly]L[X2]W-NH2
modifications: reading uncertain
B20: Compound 2 (peptide)
peptide: {DOTA-Ahx}-F[azaGly]L[X2]W-NH2
SMILES: Cc1ccc(CNCC(=O)N2CCC(NC(=O)[C@H](CC(C)C)NC(=O)NNC(=O)[C@H](Cc3ccccc3)NC(=O)CCCCCNC(=O)CN3CCN(CC(=O)O)CCN(CC(=O)O)CCN(CC(=O)O)CC3)(C(=O)N[C@@H](Cc3c[nH]c4ccccc34)C(N)=O)CC2)cc1F
B21: Compound 58 (peptide)
peptide: {DOTA-NH‑glycol}-[dY][2Nal]NTF[azaGly]L[X2]W-NH2
modifications: reading uncertain
B22: Compound 24 (peptide)
peptide: {DOTA-2‑(4-aminopiperidin-1-yl)acetic acid}-[dY]ENT[Phe(3-F)][azaGly]L[X2]W-NH2
B23: Compound 55 (peptide)
peptide: {DOTA-Ahx}-F[azaGly]L[X2]F-NH2
SMILES: Cc1ccc(CNCC(=O)N2CCC(NC(=O)[C@H](CC(C)C)NC(=O)NNC(=O)[C@H](Cc3ccccc3)NC(=O)CCCCCNC(=O)CN3CCN(CC(=O)O)CCN(CC(=O)O)CCN(CC(=O)O)CC3)(C(=O)N[C@@H](Cc3ccccc3)C(N)=O)CC2)cc1F
B24: Compound 34 (peptide)
peptide: {DOTA-APM}-[dY][dW]NT[Phe(3-F)][azaGly]L[X2]W-NH2
modifications: reading uncertain
B25: Compound 22 (peptide)
peptide: {DOTA-Ahx}-FF[azaGly]L[X2]W-NH2
modifications: not fully specified; numbers in words are those of the source; also: places azaglycine at site 3
B26: Compound 27 (peptide)
peptide: {DOTA-Ahx}-[dY]KNT[Phe(3-F)][azaGly]L[X2]W-NH2
SMILES: Cc1ccc(CNCC(=O)N2CCC(NC(=O)[C@H](CC(C)C)NC(=O)NNC(=O)[C@H](Cc3cccc(F)c3)NC(=O)[C@@H](NC(=O)[C@H](CC(N)=O)NC(=O)[C@H](CCCCN)NC(=O)[C@@H](Cc3ccc(O)cc3)NC(=O)CCCCCNC(=O)CN3CCN(CC(=O)O)CCN(CC(=O)O)CCN(CC(=O)O)CC3)[C@@H](C)O)(C(=O)N[C@@H](Cc3c[nH]c4ccccc34)C(N)=O)CC2)cc1F

target: human kisspeptin receptor (KISS1R) (human), Q969F8; assay: radioligand competition, hKISS1R membranes; legend: A is <10 nM
Sequence (Q969F8 whole entry): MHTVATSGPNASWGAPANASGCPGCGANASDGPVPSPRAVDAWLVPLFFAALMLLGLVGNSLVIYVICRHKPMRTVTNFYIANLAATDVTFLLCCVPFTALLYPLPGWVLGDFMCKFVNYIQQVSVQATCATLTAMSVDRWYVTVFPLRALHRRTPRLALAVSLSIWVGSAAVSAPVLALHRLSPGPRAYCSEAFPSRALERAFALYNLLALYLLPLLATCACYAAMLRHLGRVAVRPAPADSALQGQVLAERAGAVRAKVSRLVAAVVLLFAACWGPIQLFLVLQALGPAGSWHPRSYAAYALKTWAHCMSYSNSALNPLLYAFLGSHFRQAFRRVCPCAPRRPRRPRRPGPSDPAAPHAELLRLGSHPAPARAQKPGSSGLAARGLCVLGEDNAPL

Binder | Ki
B1 | < 10 nM
B2 | < 10 nM
B3 | < 10 nM
B4 | < 10 nM
B5 | < 10 nM
B6 | < 10 nM
B7 | < 10 nM
B8 | < 10 nM
B9 | < 10 nM
B10 | < 10 nM
B11 | < 10 nM
B12 | < 10 nM
B13 | < 10 nM
B14 | < 10 nM
B15 | < 10 nM
B16 | < 10 nM
B17 | < 10 nM
B18 | < 10 nM
B19 | < 10 nM
B20 | < 10 nM
B21 | < 10 nM
B22 | < 10 nM
B23 | < 10 nM
B24 | < 10 nM
B25 | < 10 nM
B26 | < 10 nM
